Source: article PMC3268748, “A novel cold-active β-D-galactosidase from the Paracoccus sp. 32d - gene cloning, purification and characterization” (Microbial Cell Factories, 2011)

Substrate: O=[N+]([O-])c1ccccc1O[C@@H]1O[C@H](CO)[C@H](O)[C@H](O)[C@H]1O
Assay: purified protein
Type: biochemical, Paracoccus sp. 32d
Details: 20 °C, 20 mM sodium phosphate pH 7.3, apparent Km, also measured at 10 and 30 °C

B1: BgaL; Paracoccus sp. 32d β-D-galactosidase (Paracoccus sp. 32d) (protein)
chain: MRVTQKLNHGWIFAEGAADPATPLAGETVTLPHNAVDLPLSYFDETSYQRAFTYQRVIAWDDAWQGRRVQLRFDGAMADNVVWVNGVQVVAHPDGYTPFVADLTDHLRPGDNLVTVRIDGSENPAIPPFGAQIDYLTYAGIYRDVWLMVLPERHLTNARILTPDALSDAKTVVIRPEVTAPGPVRARLLDGDREIAATEGEGELTLAGLTGLSLWSTDNPQLYTVELTLPDSGDVTTHRFGFRTAEWTPQGFLLNGQPMKLRGLNRHQSWAHQGYAAGRHAQERDAEIVRHDLCCNMVRTSHYPQSTWFLDRCDEIGLLVFEEIPGWQHIGDQAWQDRSVDNVRAMITRDWNHPSIVIWGVRINESPDNHDFYVRTNALARELDPTRAIGGVRCITDSEMLEDVYTMNDFILDESELPLINRPRTALRPTEEVTGIKKPVPYLVTEYNGHMFPTKAQDPELRQMEHVIRHLEVLNAAHGDPAISGCIGWCMFDYNTHKDFGAGDRICHHGVMDIWREPKFAAHAYGSQKPPSEGIVMEPVTFWARGERNIGGVLPLIVLTNCDEVEFECAGVTRRVGPDRERFPHLPRPPVIIDHRHISAEELGQWGMSWHPGRITGWLNGEQVALREYVADPLPTTLQIAPDRDTLPADGDIDLRVMLRALDQVGNRLPFLDAGIAVTVDGPARLIGPDLRMLQGGTTGMLLRLTGDAGTIRITARHPQFPEAVATVTVG
notes: E. coli LMG194, pBAD/Myc-His A with native stop codon (no tag), ion exchange purified; homodimer 161 kDa; GH2
- Km: 1180 ± 60 µM
- kcat: 138 ± 2.19 s⁻¹
- kcat/Km: 117000 M⁻¹ s⁻¹
